Results as given in article PMC6982540.

Biological target: His-PTP1B (residues 1–321), reversibly oxidized and phosphorylated on Ser50 (UniProt P18031)
Assay: SPR

Chain of UniProt P18031 (P18031 1-321): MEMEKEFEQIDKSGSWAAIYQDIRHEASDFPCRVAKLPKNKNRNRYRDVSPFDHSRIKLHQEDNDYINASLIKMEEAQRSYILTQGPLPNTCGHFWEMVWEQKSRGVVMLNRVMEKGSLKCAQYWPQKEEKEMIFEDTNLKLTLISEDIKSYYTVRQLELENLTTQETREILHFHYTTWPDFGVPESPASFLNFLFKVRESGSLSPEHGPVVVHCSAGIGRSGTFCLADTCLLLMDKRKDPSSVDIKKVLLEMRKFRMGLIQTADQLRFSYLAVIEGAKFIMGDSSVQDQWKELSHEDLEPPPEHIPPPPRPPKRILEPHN

Substance: GST-14-3-3-ζ (from UniProt P63104 1-245) (natural protein)
- koff: 0.00458 s⁻¹
